Consider one molecule from patent US20200277382A1 (TUFTS MEDICAL CENTER, published 2020).

This test deals with T1, integrin α5 (obligate heterodimer α5β1) (human, UniProt P08648 42-1049; P05556 21-798).
T1 construct: whole, on cells; on the cells α5 stands as α5β1; also called alpha 5; ITGA5
The test can be described thus: flow cytometry on a panel of cell lines with variable integrin α5 and alpha-V expression. The protocol:
Flow Cytometry: Cells with variable membrane integrin α5 and alpha-V expression were incubated with monoclonal α5 or alpha-V antibodies (Millipore MAB1956Z and MABT207), the bispecific antibody construct ITGA5B1xAV, or isotype control, for 1 hour at room temperature followed by 1 hour of incubation with a secondary-conjugated antibody, before being analyzed by flow cytometry.
Statistics: The mean fluorescent intensities (MFI) for the α5, alpha-V, and bispecific ITGA5B1xAV stained cell populations for each cell line were calculated from the flow cytometry data. Then a correlation coefficient between the sum of α5 and alpha-V MFIs and the bispecific ITGA5B1xAV was calculated.
The sum of integrin α5 and integrin alpha-V binding (MFI) was highly correlated with bispecific binding (correlation.9187; FIG. 3B).

B1: ITGA5B1xAV bispecific, tetravalent antibody construct (bispecific antibody, human IgG2, kappa)
heavy: QVQLQQSGGELAKPGASVKVSCKASGYTFSSFWMHWVRQAPGQGLEWIGYINPRSGYTEYNEIFRDKATMTTDTSTSTAYMELSSLRSEDTAVYYCASFLGRGAMDYWGQGTTVTVSSASTKGPSVFPLAPCSRSTSESTAALGCLVKDYFPEPVTVSWNSGALTSGVHTFPAVLQSSGLYSLSSVVTVPSSNFGTQTYTCNVDHKPSNTKVDKTVERKCCVECPPCPAPPVAGPSVFLFPPKPKDTLMISRTPEVTCVVVDVSHEDPEVQFNWYVDGVEVHNAKTKPREEQFNSTFRVVSVLTVVHQDWLNGKEYKCKVSNKGLPAPIEKTISKTKGQPREPQVYTLPPSREEMTKNQVSLTCLVKGFYPSDIAVEWESNGQPENNYKTTPPMLDSDGSFFLYSKLTVDKSRWQQGNVFSCSVMHEALHNHYTQKSLSLSPGKGGGGSGGGGSQVQLKESGPGLVAPSQSLSITCTISGFSLTDYGVHWVRQPPGKGLEWLVVIWSDGSSTYNSALKSRMTIRKDNSKSQVFLIMNSLQTDDSAMYYCARHGTYYGMTTTGDALDYWGQGTSVTVSSGGGGSGGGGSGGGGSQIVLTQSPAIMSASLGERVTMTCTASSSVSSNYLHWYQQKPGSAPNLWIYSTSNLASGVPARFSGSGSGTSYSLTISSMEAEDAATYYCHQYLRSPPTFGGGTKLEIK
light: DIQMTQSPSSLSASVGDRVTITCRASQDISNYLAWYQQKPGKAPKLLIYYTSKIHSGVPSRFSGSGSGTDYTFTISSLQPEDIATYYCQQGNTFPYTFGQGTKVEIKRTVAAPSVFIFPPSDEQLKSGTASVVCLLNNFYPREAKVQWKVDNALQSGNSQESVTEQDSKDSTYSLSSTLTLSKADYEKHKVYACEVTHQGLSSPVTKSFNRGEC
notes: also called ITGa5β1xaV; bispecific ITGA5V
As for B1, the binding result is on record as “binds”.
